Measurements: the supplement of paper PMC10065799, “High-throughput profiling of sequence recognition by tyrosine kinases and SH2 domains using bacterial peptide display” (eLife, 2023)

What was measured:
c-Src SH2 = test: SH2 binding enrichment of the phosphorylated peptide, bacterial display (enrichment ratio); higher = better substrate or ligand; peptides without Tyr show the background
Grb2 SH2 = Grb2 SH2 (UniProt P62993); test: as above
SHP2-C SH2 = test: as above
MERTK = MERTK (UniProt Q12866); test: phosphorylation enrichment, bacterial display (enrichment ratio); higher = better substrate or ligand; peptides without Tyr show the background
FGFR1 = FGFR1 (UniProt P11362); test: as above
EPHB2 = EPHB2 (UniProt P29323); test: as above
c-Abl (mouse) = test: as above
FGFR3 = FGFR3 (UniProt P22607); test: as above
Fyn = Fyn (UniProt P06241); test: as above
EPHB1 = EPHB1 (UniProt P54762); test: as above
Fer (mouse) = test: as above
c-Src = test: as above
Fes = Fes (UniProt P07332); test: as above
AncSZ = test: as above
Hck = Hck (UniProt P08631); test: as above
Jak2 = Jak2 (UniProt O60674); test: as above
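Throughout, for SH2 binding enrichment of the phosphorylated peptide, bacterial display: peptide library displayed on the E. coli surface as eCPX fusions, selected cells deep-sequenced, score is each peptide's frequency after selection divided by its frequency in the input.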
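Throughout, for phosphorylation enrichment, bacterial display: 11-residue human phosphosite peptides and single-mutation variants displayed on the E. coli surface, counted by deep sequencing, each peptide's frequency after selection divided by its frequency in the unselected input library; frequency after pTyr selection over input frequency; kinase dosed for 20-30% of maximal phosphorylation in three min.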

Sequence of FGFR1 (P11362 whole entry, looked up): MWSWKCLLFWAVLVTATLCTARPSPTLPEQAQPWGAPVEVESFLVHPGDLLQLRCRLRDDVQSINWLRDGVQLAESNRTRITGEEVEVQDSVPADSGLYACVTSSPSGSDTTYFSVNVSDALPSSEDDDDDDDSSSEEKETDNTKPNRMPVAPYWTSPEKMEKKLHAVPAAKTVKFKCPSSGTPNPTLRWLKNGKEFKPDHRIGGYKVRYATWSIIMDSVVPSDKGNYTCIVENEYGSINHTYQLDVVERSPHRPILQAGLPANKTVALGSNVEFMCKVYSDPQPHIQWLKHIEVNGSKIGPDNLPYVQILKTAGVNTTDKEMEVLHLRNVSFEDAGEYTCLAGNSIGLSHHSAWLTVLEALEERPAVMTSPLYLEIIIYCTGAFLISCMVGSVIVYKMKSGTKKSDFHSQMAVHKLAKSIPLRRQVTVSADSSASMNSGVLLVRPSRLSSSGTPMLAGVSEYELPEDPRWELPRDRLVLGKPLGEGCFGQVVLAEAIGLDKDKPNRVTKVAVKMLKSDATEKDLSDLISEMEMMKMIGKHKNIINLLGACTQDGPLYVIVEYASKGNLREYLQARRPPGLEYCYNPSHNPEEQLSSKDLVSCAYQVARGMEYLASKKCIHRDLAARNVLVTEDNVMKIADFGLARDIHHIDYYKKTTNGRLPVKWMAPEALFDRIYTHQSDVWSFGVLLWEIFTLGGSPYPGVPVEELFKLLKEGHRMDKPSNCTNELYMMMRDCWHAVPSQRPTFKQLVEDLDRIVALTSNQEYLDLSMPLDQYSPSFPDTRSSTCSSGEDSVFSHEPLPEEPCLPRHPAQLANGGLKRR
Sequence of EPHB1 (P54762 whole entry, looked up): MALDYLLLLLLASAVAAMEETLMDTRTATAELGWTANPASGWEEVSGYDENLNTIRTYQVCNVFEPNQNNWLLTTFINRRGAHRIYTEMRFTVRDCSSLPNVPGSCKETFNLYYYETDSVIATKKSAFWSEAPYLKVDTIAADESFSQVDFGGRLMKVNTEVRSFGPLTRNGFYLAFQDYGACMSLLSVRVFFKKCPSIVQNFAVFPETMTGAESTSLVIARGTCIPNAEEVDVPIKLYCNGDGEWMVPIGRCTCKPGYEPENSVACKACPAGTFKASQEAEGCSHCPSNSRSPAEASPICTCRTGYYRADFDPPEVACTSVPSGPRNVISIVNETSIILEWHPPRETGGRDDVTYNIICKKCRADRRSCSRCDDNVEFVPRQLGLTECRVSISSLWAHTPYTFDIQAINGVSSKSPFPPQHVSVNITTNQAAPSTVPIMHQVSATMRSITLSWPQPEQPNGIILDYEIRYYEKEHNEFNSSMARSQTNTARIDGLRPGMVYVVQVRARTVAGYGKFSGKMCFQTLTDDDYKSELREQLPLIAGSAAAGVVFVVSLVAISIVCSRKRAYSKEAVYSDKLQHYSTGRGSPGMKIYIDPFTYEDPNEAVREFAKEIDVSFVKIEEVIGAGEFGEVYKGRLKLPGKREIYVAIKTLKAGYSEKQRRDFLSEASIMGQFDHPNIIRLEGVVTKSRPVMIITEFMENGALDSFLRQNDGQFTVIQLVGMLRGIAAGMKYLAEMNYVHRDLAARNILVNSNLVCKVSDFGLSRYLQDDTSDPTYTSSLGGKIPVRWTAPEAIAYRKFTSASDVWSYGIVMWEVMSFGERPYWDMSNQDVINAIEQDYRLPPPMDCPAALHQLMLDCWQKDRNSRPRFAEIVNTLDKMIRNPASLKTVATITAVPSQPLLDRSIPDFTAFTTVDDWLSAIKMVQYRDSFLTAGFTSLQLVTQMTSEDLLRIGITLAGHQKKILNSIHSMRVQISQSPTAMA
Sequence of Jak2 (O60674 whole entry, looked up, the tested form may be a part): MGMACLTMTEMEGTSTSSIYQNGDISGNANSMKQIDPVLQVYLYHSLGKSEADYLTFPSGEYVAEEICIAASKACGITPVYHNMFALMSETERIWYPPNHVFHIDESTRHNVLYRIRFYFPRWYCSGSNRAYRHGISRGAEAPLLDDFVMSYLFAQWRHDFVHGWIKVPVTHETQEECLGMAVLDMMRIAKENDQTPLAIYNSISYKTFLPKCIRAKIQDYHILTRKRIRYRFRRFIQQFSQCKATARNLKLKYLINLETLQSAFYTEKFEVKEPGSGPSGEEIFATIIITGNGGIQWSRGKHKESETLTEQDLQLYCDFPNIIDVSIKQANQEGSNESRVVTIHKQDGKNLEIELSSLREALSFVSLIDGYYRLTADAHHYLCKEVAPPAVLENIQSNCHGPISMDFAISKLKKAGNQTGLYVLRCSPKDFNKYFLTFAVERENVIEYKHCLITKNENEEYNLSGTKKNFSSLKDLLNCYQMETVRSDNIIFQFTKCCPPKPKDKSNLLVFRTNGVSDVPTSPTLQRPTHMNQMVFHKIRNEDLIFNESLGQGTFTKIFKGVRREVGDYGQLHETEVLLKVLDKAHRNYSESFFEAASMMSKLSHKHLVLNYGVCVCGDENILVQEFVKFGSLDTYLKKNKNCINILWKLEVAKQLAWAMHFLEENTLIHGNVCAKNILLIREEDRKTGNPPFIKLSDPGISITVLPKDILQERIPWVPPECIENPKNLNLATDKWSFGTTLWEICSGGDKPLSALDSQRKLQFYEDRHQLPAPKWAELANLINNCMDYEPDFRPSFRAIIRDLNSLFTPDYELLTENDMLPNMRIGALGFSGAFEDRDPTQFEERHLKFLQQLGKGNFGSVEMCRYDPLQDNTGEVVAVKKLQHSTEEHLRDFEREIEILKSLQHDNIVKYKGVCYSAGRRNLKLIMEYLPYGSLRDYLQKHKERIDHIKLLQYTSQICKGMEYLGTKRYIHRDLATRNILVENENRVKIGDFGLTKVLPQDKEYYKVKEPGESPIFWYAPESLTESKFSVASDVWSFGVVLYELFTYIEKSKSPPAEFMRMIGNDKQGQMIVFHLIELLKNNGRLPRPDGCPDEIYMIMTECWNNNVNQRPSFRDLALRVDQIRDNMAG
Sequence of Fyn (P06241 whole entry, looked up): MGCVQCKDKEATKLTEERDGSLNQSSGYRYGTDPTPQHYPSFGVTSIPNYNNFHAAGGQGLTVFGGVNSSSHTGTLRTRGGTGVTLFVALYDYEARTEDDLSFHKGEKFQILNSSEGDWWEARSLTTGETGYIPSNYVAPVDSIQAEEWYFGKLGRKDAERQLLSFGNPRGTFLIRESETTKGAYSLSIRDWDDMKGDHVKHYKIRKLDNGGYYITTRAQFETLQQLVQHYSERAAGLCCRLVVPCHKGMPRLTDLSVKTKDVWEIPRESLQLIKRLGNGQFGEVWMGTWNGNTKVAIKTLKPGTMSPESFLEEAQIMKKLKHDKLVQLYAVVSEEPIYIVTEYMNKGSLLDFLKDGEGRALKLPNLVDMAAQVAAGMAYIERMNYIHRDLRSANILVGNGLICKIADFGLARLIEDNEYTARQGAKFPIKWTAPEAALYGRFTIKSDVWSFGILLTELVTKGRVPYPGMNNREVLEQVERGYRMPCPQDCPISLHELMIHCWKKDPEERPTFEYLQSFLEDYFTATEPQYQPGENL
Sequence of Fes (P07332 whole entry, looked up): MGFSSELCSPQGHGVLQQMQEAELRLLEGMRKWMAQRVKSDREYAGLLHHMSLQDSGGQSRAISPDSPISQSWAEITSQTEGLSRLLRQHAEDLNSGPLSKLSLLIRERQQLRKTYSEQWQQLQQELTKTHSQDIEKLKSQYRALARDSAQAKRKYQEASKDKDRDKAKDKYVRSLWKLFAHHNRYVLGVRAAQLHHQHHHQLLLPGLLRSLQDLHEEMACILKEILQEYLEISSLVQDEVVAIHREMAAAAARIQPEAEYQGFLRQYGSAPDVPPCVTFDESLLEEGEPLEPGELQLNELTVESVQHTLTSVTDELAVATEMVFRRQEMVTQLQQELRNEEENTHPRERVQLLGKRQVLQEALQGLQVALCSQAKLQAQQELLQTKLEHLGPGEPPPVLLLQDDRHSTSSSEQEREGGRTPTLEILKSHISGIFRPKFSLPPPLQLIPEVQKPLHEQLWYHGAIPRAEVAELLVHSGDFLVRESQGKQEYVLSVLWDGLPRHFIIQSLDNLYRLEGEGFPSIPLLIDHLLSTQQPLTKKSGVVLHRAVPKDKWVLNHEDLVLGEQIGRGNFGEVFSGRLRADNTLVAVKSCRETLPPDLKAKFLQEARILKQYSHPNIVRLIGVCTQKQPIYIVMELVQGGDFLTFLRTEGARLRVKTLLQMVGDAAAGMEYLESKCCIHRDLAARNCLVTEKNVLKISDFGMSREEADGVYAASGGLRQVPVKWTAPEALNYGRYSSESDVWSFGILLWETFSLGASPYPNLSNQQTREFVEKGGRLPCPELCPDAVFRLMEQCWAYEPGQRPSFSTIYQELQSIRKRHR
Sequence of FGFR3 (P22607 whole entry, looked up): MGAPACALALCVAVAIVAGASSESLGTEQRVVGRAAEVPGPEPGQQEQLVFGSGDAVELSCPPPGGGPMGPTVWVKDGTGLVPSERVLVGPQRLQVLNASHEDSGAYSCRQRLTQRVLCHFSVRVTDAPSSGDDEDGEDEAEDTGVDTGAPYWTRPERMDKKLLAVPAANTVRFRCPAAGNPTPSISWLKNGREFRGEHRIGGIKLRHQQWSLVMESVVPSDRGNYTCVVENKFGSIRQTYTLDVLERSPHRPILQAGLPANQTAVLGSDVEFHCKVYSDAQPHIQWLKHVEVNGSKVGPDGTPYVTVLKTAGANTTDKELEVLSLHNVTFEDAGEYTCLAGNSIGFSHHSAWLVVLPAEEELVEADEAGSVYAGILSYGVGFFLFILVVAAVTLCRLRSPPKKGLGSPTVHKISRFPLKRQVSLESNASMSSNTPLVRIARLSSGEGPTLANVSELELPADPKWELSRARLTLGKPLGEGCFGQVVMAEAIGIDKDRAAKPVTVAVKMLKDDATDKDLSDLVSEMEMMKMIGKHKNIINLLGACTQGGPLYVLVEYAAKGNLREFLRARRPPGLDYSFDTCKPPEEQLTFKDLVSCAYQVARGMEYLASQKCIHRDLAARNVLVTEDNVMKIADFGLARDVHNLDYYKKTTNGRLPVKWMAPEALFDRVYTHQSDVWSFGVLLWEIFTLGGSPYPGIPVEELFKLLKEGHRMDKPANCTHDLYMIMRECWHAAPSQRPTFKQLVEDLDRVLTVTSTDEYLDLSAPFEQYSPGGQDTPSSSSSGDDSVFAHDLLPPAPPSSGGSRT

Sequence	SH2 binding enrichment (c-Src SH2)	SH2 binding enrichment (Grb2 SH2)	SH2 binding enrichment (SHP2-C SH2)	phosphorylation enrichment (MERTK)	phosphorylation enrichment (FGFR1)	phosphorylation enrichment (EPHB2)	phosphorylation enrichment (c-Abl (mouse))	phosphorylation enrichment (FGFR3)	phosphorylation enrichment (Fyn)	phosphorylation enrichment (EPHB1)	phosphorylation enrichment (Fer (mouse))	phosphorylation enrichment (c-Src)	phosphorylation enrichment (Fes)	phosphorylation enrichment (AncSZ)	phosphorylation enrichment (Hck)	phosphorylation enrichment (Jak2)
VQVAYYTMMMN [SPATA17_Y84]	1.56	1.21	1.56	6.47	8.59	1.17	1.15	6.58	1.48	2.52	3.67	2.56	1.54	1.81	1.65	4.11
TNLVPYPRIHF [TUBA1A_Y262]	0.619	0.997	0.842	0.413	0.445	0.422	0.781	0.471	0.378	1.18	0.449	0.392	0.655	0.501	0.369	0.624
PESILYRKFTT [NTRK1_Y701]	0.412	0.724	0.81	0.542	0.627	0.52	0.732	0.73	0.377	0.668	0.818	0.632	0.9	1.14	0.538	1.14
CDGKEYDPVEA [MAPRE2_Y167_Y162C]	0.615	0.714	0.891	0.541	0.594	0.66	0.883	0.721	0.598	0.64	0.65	0.649	1.66	1.36	0.567	1.54
SISFDYCRVPM [BST2_Y8_T4I_YF]	0.39	0.726	0.65	0.547	1.43	1.36	0.785	1.39	0.463	2.13	0.533	0.528	1.15	1.65	0.546	1.43
QTSTDYDIRFY [CSNK2A1_Y131_L128S]	0.36	0.707	0.625	0.869	1.08	1.36	1.2	1.04	0.981	1.22	0.844	0.785	1.86	1.46	0.89	1.47
PLGPLYASSNT [INSR_Y992_P997T]	0.526	0.914	1.1	1.12	0.633	0.783	1.51	0.73	0.908	0.896	1.1	1.22	0.949	1.87	3.67	0.723
QFNMQYSSSAA [ERBB2IP_Y981_I979M_YF]	0.643	0.694	0.527	0.492	0.558	0.529	0.449	0.674	0.388	0.592	0.492	0.346	1.18	0.937	0.47	0.581
NVSILYTASQA [CTNNA1_Y222_P219S]	0.499	0.921	0.685	0.505	0.434	0.51	0.787	0.725	0.447	0.548	0.629	0.531	1.02	0.892	0.547	0.95
EWLRRYLENGK [HLA-A_Y195]	0.522	0.932	0.757	0.328	0.42	0.456	0.581	0.498	0.346	0.386	0.36	0.346	0.809	0.691	0.387	0.661
LIFVSYDDWDF [GRIN2A_Y281_S278F_YF]	1.01	1.68	1.53	2.03	1.38	2.89	2.77	2.55	1.02	2.23	17.4	1.79	4.34	4.68	1.1	4.29
SRIWVYNHYRW [BRCA2_Y2621]	1.17	1.14	1.1	0.466	0.574	0.466	0.783	0.845	0.469	0.671	0.396	0.402	1.59	1.05	0.442	0.95
YLEEEYVKAVG [TF_Y674_G671E]	0.323	0.75	0.685	0.454	0.606	0.63	1.01	0.893	0.491	0.629	0.615	0.505	1.32	1.36	0.575	1.18
LKTNWYNNGKD [DNMT3B_Y404_C403W]	0.464	1.17	1.12	0.736	0.664	0.688	1.62	1.05	0.544	0.468	0.644	0.838	1.44	1.54	1.01	1.18
NPQKPYFIRLY [WAS_Y83_S82P]	0.542	0.909	0.699	0.344	0.395	0.599	0.544	0.675	0.354	0.561	0.474	0.303	1.08	1.01	0.443	0.906
IHFPPYTDWNQ [ALDH3B2_Y365_YF]	0.821	0.979	0.736	0.431	0.659	0.524	0.687	0.685	0.526	0.695	1.04	0.52	1.03	1.01	0.519	0.894
VVAHQYSFAPD [TNS3_Y601]	1.31	0.702	0.657	0.414	0.74	0.353	0.504	0.727	0.542	0.521	0.401	0.481	0.736	0.684	0.515	0.529
ADIETYLLEKS [MYH7_Y266]	0.405	0.755	0.88	0.46	0.484	0.582	0.746	0.635	0.554	0.466	0.431	0.731	1.12	1.04	0.551	0.871
AVLSLYASDRT [ACTA1_Y145_G148D]	0.452	0.895	0.88	0.446	0.476	0.664	0.893	0.666	0.637	0.662	0.515	0.465	1.14	0.967	0.538	0.884
RHLREYQDLLN [DES_Y388]	2.29	1.25	0.872	0.491	0.61	1.12	0.888	0.641	0.483	0.621	0.533	0.41	1.19	0.93	0.464	0.807
VFSTDYFRVGG [NTRK2_Y706_YF]	0.556	0.761	0.697	0.587	6.21	0.709	0.734	3.75	0.464	0.826	0.499	0.757	0.859	1.69	0.459	8.12
PPKFFDTRKLL [CYBB_Y41_Y41D]	0.92	1.54	1.17	0.796	0.365	0.556	0.759	0.38	0.518	0.383	0.941	0.614	0.639	0.992	0.51	0.663
IMAFFYMCDRA [CASD1_Y382_YF]	0.641	0.819	0.825	0.544	0.652	0.648	1.09	1.12	0.57	0.938	0.677	0.57	1.63	1.48	0.545	1.64
VHNLDYFKKTT [FGFR3_Y647_YF]	0.406	0.782	0.678	0.505	0.437	0.425	0.573	0.617	0.471	0.512	0.428	0.523	0.91	0.806	0.46	0.857
SKGYAYVHFDS [PABPC5_Y149]	11.1	0.991	29.3	0.37	0.632	0.561	0.953	0.749	0.449	0.575	0.584	0.479	1.25	1.22	0.53	1.05
IHHIDYFKETT [FGFR1_Y653_K656E_YF]	0.447	0.832	0.767	0.427	0.443	0.415	0.445	0.567	0.555	0.456	0.451	0.489	0.778	0.605	0.446	0.692
MASTSYDFCRV [BST2_Y6_YF]	1.66	0.99	0.727	0.709	0.572	0.613	0.622	0.829	0.486	0.576	2.25	0.525	0.919	0.944	0.473	0.796
FMCKVYSDPQP [FGFR1_Y280]	0.439	0.733	0.511	0.425	0.543	0.701	0.99	0.863	0.516	0.752	0.591	0.664	1.64	1.41	0.578	1.3
RGDCMYASLLG [AR_Y269_P271S]	1.12	1.26	1.99	4.87	1.45	1.49	1.42	1.52	6.63	2.43	1.1	6	1.39	1.25	7.26	1.03
